What all share (experiment): SPR (Biacore 3000), Fab immobilized on CM5, peptide as analyte, 1:1 fit, 25 C
The target in experiment [1] is T1, aTNFa-Fab (Fab fragment of Infliximab) (Chimeric antibody/IgG1κ).
T1 construct: domain: Fab fragment; also called Infliximab Fab; Remicade Fab

In experiment [2] the target is T1, aTNFa-Fab (Fab fragment of Infliximab). The source holds these as a separate data set.
The target is the same in experiment [3]. The source holds these as a separate data set.

Where two headings read alike, the source gives them in different places.

B1: LB3t-Wild.1d (other)
chain: GPLGSEEVTIKANLIYADGKTQTAEFKGTFEEATAEAYRYADLLAKENGKYTVDVADKGYTLNIKFAG
notes: also called B3 domain
In experiment [1], B1 registered a Ka of 100000 M⁻¹, a koff of 0.305 s⁻¹ and a kon of 20000 M⁻¹ s⁻¹.

B2: LB4t-Wild.1d (other)
chain: GPLGSEEVTIKANLIYADGKTQTAEFKGTFAEATAEAYRYADLLAKENGKYTADLEDGGYTINIRFAG
notes: also called B4 domain
As to B2, in experiment [1], the Ka came to 300000 M⁻¹, the koff was 0.239 s⁻¹ and the kon came to 70000 M⁻¹ s⁻¹.

B3: LC1t-Wild.1d (other)
chain: GPLGSEEVTIKANLIFADGSTQNAEFKGTFAKAVSDAYAYADALKKDNGEYTVDVADKGLTLNIKFAGK
notes: also called C1 domain
B3: in experiment [2], the Ka was determined as 200000 M⁻¹, the koff turned out to be 0.152 s⁻¹ and the kon amounted to 20000 M⁻¹ s⁻¹.

B4: LB5t-Wild.1d (B5 domain of PpL 312 with deletion of N-terminal region) (other)
chain: GPLGSEQVTIKENIYFEDGTVQTATFKGTFAEATAEAYRYADLLSKEHGKYTADLEDGGYTINIRFAG
In experiment [3], B4 had a Ka of 700000 M⁻¹, a koff of 0.215 s⁻¹ and a kon of 150000 M⁻¹ s⁻¹.

B5: LB1t-Wild.1d (other)
chain: GPLGSEEVTIKANLIFANGSTQTAEFKGTFEKATSEAYAYADTLKKDNGEYTVDVADKGYTLNIKFAG
notes: also called B1 domain
In experiment [1], B5 returned a Ka of 30000 M⁻¹, a koff of 0.481 s⁻¹ and a kon of 10000 M⁻¹ s⁻¹.

B6: LC4t-Wild.1d (other)
chain: GPLGSEEVTIKVNLIFADGKTQTAEFKGTFEEATAEAYRYADLLAKVNGEYTADLEDGGYTINIKFAGK
notes: also called C4 domain
For B6, in experiment [2], the Ka worked out at 20000 M⁻¹, the koff is 0.397 s⁻¹ and the kon was found to be 10000 M⁻¹ s⁻¹.

Source of the values: US20190119362A1 (KANEKA, published 2019).
